Measured values published in paper doi:10.1101/2022.10.31.514592 (bioRxiv, 2022).

Key:
SARS-CoV-2 WT RBD = SARS-CoV-2 WT RBD (SARS-CoV-2, wildtype (Wuhan-Hu-1 type), UniProt P0DTC2); experiment: ELISA
SARS-CoV-1 RBD = SARS-CoV-1 RBD (SARS-CoV-1, strain , UniProt P59594); experiment: ELISA

Row | Binder | binding result (SARS-CoV-2 WT RBD) | binding result (SARS-CoV-1 RBD)
1 | S626-161 IgG (antibody, V domains shown) VH: QLQLQESGPGLVKPSEALSLTCTVSGGSISTSNYYWGWIRQPPGKGLEWIGSIYYRGGTHYNPSLKTRVTISVDTSKNQFSLKLSSVTAADTAVYYCARHTYFYDIVGAAVWEPFDIWGQGTMVTVSS VL: not shown | binds | binds
2 | S451-1140 IgG (antibody, V domains shown) VH: EVQLVESGGGLVPPGGSLRLSCAASGFIFSNYAMTWVRQAPGKGLEWVSAISGGGGSTDYADSVKGRFTISRDNSKNTLYLQMNSLRAEDTAVYYCAKDLFGSGWSLFDNWGQGTLVTVSS VL: not shown | binds | 
3 | S728-1157 IgG (antibody, V domains shown) VH: EVQLVESGGGLVQPGGSLRLSCAASGLLVSRNYMNWVRQAPGKGLEWVSIIYSGGSTFYADSVEGRFTISRDESKNTLYLQMNSLRTDDTAVYYCARDLSDYGGIDCWGQGTLVTVSS VL: ELTQPLSVSMALGQTARISCGGDNVGSQNVHWYQQRPGQAPVLVIYRDSNRPSGIPERFSGSKSGNTATLTISRAQAGDEADYYCQVWDSSTVAFGGGTKLTVL | binds | 
